Assay results published in patent publication US20230095167A1 (UNIVERSITEIT MAASTRICHT, published 2023).

T1: recombinant NT-proBMP10 (22-312) (human, UniProt O95393 22-312)
T1 construct: In-house construct; also called pro-peptide BMP10; BMP10(312)
T1 sequence: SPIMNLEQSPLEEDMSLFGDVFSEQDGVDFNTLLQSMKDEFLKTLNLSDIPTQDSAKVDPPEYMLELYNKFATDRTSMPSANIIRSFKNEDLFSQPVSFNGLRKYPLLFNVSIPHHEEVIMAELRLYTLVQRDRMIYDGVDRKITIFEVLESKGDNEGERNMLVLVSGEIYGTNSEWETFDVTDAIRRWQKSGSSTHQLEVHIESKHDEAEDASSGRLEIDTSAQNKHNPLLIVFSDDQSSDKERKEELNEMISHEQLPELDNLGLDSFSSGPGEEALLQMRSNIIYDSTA


Tests used:
[1] = biological target: T1, recombinant NT-proBMP10 (22-312); assay: SPR Biacore 8K, 37°C, bound analyte per mAb
[2] = biological target: T1, recombinant NT-proBMP10 (22-312); assay: SPR Biacore 8K, 37°C, mAb captured, BMP10(312) as analyte; ln(2)/60*kd
Protocol: (§1) The association phase was monitored for 3 minutes; dissociation phase was monitored for 10 minutes. After each cycle of kinetics determination, the rabbit clones were eluted from the capture system by an injection of 10 mM Glycine pH 2.0 for 1 minute, followed by two consecutive injections of 10 mM Glycine pH 2.25 at 20 μL/min for 1 minute.
(§2) The dissociation rate constant kd was evaluated using a Langmuir 1:1 fit model according to the BIAcore™ evaluation software Insight SW V 2.0 from GE Healthcare. The antigen/antibody complex stability half-life time (minutes) was calculated according to the formula ln(2)/60*kd.

[3] = biological target: T1, recombinant NT-proBMP10 (22-312); assay: SPR Biacore 8K, 37°C, mAb captured by goat anti-rabbit Fc, BMP10(312) 3.7-300 nM as analyte; apparent, avidity-burdened
Protocol: as §1, §2

Row | Binder | MR (Molar Ratio) [1] | t/2 diss (complex half-life) [2] [min] | koff [3] [s⁻¹]
1 | MAB<BMP10>rRb-8G5 HC3/LC5 (p10qz/p10ra)-IgG(SPA) (antibody, V domains shown, Recombinant rabbit monoclonal IgG; also called clone 8G5; VH-8/VL-8) VH: QSLEESGGDLVKPGASLTLTCTASGFSFSSSYWICWVRQAPGKGLEWIACIYAGSSDITYYASWAKGRFTVSKTSSPTVTLQMTSLTAADTATYFCARGRYYVDGYADYYPGDFNLWGPGTLVTVSS VL: DIVMTQTPASVEAAVGGTVTIKCQASQSISSYLAWYQQKSGQPPKLLIYLASTLESGVPSRFKGSGSGTEFTLTISDLECADAATYYCQSYYYSSSSSYGSAFGGGTEVVVK | 1.2 | 6 | 0.0021
2 | 11C10 (antibody, V domains shown, Rabbit monoclonal IgG; also called clone 11C10; VH-3/VL-3) VH: QSLEESGGRLVTPGTALTVTCTVSGIDLSRNLMSWVRQAPGEGLEWIGSINFRNITWYASWAKGRFTISKTSTTVDLRISSPTTEDTATYFCARGVYVNSNGYYSLWGQGTPVTVSS VL: DIVMTQTPASVEAAVGGTVTINCQASQSVSNLLAWYQQKPGQPPKLLIYGASKLESGVPSRFKGSGSGTQFTLTINDLECDDAATYYCQTYWGGDGTSYLNPFGGGTEVVVK | 1.3 | 26 | 0.00045
3 | MAB<BMP10>rRb-2H8 HC7/LC6 (p10qv/p10qw)-IgG(SPA) (antibody, V domains shown, Recombinant rabbit monoclonal IgG; also called clone 2H8; VH-6/VL-6) VH: QSVEESGGRLVTPGTPLTLTCTASAFSLSRYVMSWVRQAPGKGLEFIGFINASGSTSYASWAKGRFTISKTSTTVDLKMTSLTTEDTATYFCATGNLWGPGTLVTVSS VL: DIVMTQTPSSVSGPVGGTVTINCQASQNIYSNLAWYQQKPGQPPKLLIYYASTLVSGVPSRFKGSGSGTQFTLTISDLECANAATYYCQSKDGPTSSTYGAFGGGTEVVVR | 1.2 | 38 | 0.0003
4 | MAB<BMP10>rRb-3H8 HC3/LC3 (p10qx/p10qy)-IgG(SPA) (antibody, V domains shown, Recombinant rabbit monoclonal IgG; also called clone 3H8; VH-7/VL-7) VH: QSVEESGGRLVTPGTPLTLTCTASGFSLSKYDMSWVRQAPGKGLEWIGAIGGRGVTDYTTWAKGRFTISKTATTVDLKMTSPTTEDTATYFCVRALAGDTLWGPGTLVTVSS VL: AQVLTQTASPVSAAVGSTVTINCQASQNIYKYNNLAWYQQKPGQPPKRLIYEASKLASGVPSRFSGSGSGTQFTLTISGVQCEDAATYYCQGTFECSSADCFGFGGGTEVVVK | 1.3 | 15 | 0.00078
5 | MAB<BMP10>rRb-14C8 HC2/LC3 (p10th/p10ti)-IgG(SPA) (antibody, V domains shown, Recombinant rabbit monoclonal IgG; also called clone 14C8; VH-5/VL-5) VH: QSVEESGGRLVTPGTPLTLTCTASGIDLSRYAMTWVRQAPGKGLEWIGIIGASSGTWYASWAKGRFTIAKTSTTVDLRITSPTTEDTATYFCARDNGDSKDYAFDPWGPGTLVTVSS VL: IDMTQTPSPVSAAVGDTVTINCQASENIYSFLAWYQQKPGHSPNLLIYFASKLVSGVPSRFKGSGSGTQFTLTISDVQCDDAATYYCQQTYTYSNGDNPFGGGTEVVVK | 1.3 | 10 | 0.0012
6 | MAB<BMP10>rRb-9E7 HC12/LC7 (p10rw/p10rx)-IgG(SPA) (antibody, V domains shown, Recombinant rabbit monoclonal IgG; also called clone 9E7) VH: QSLEESGGGLVQPEGSLTLTCIASAFSFSSGYYMCWVRQAPGKGLEWIACIYAGSSGTTYYASWAKGRFTISKASSTTVTLLMTSLTAADTATYFCARGPGASGYRLGLWGPGTLVTVSS VL: DVVMTQTPASVSEPVGGTVTIKCQASEDIYRLLAWYQQKPGQPPKLLIYDASDLASGVPSRLSGSGSGTEYTLSISDLECADAATYYCQQGYYISGGDSFGGGTEVVVK | 1.4 | 21 | 0.00054
7 | MAB<BMP10>rRb-11A5 HC6/LC3.2 (p10se/p10sf)-IgG(SPA) (antibody, V domains shown, Recombinant rabbit monoclonal IgG; also called clone 11A5; VH-2/VL-2) VH: QSVEESGGRLVTPGTPLTLTCTASGFSLSSYAMSWVRQAPGKGLQFIGYISGGGSTYYASWVKGRFTISKTSTTVDLKLTSPTTEDTATYFCARGYPGYISGTWAVGQGTLVTVSS VL: AVLTQTPSPVSAAVGGTVSISCQSSQSVVNNNRCSWFQQKPGQPPKQLIYSASTLASGVPSRFKGSGSGTQFTLTISDVQCDDAATYYCLGDYVSYGDSAFGGGTEVVVK | 1.4 | 30 | 0.00039
8 | MAB<BMP10>rRb-13G6 (p10tf/p10tg)-IgG(SPA) (antibody, V domains shown, Recombinant rabbit monoclonal IgG; also called clone 13G6; VH-4/VL-4) VH: QSLEESGGRLVTPGTPLTLTCTVSGFSLSNYAMSWVRQAPGMGLEYIGYISASGNTYYASWVKGRFTISKTSTTVDLKMTSPTTEDTATYFCARGYSGWISGTWAVGQGTLVTVSS VL: AVLTQTPSPVSAAVGGTVNIGCQSSQSVVNNNRLSWFQQRPGQPPKQLIYRASTLASGVPSRFKGSGSGTQFTLTISDVQCDDAATYYCLGDYVSYSEAAFGGGTEVVVK | 1.3 | > 115 | < 0.0001
